Experimental data as given in article PMC7901023.

Target: FOXA1-ΔHx (UniProt P35582)
Assay: pull-down

Question: With “H3/H4 tetramers (from UniProt P84233;P62799) (complex)” as the substance, how does the pull-down relative to wild-type FOXA1 (fraction of wild type) read?
Answer: The pull-down relative to wild-type FOXA1 (fraction of wild type) was 0.33.
